From US20160272683A1 (Novo Nordisk, published 2016)
Numbered stars: 1 amine (or outer) side, 2 acyl side, 3 side chain; on linkers, the order of the positions; unused ones are H or OH. * marks the point of attachment. C20 diacid = O=C(O)CCCCCCCCCCCCCCCCCCC(=O)*; C18 diacid = O=C(O)CCCCCCCCCCCCCCCCC(=O)*; γGlu = O=C(O)[C@H](CCC(=O)[*:2])N[*:1]; AEEA = NCCOCCOCC(=O)O

B1: [N-terminal(C20 diacid-gGlu), des1, 4G, 9T, 15Q, 21Q, 23Y, 30S, 31G, 32T, 33Y]mimylin (peptide)
peptide: {C20 diacid-γGlu}-ASGLSTATLGRLSQELHELQTYPRTETGSGTY-NH2
B2: [N-terminal(C20 diacid-gGlu-2xOEG), des1, 4G, 9V, 15Q, 21Q, 23Y, 30S, 31G, 32T, 33Y]mimylin (peptide)
peptide: {C20 diacid-γGlu-AEEA-AEEA}-ASGLSTAVLGRLSQELHELQTYPRTETGSGTY-NH2
SMILES: CC(C)C[C@H](NC(=O)CNC(=O)[C@H](CO)NC(=O)[C@H](C)NC(=O)COCCOCCNC(=O)COCCOCCNC(=O)CC[C@H](NC(=O)CCCCCCCCCCCCCCCCCCC(=O)O)C(=O)O)C(=O)N[C@@H](CO)C(=O)N[C@H](C(=O)N[C@@H](C)C(=O)N[C@H](C(=O)N[C@@H](CC(C)C)C(=O)NCC(=O)N[C@@H](CCCNC(=N)N)C(=O)N[C@@H](CC(C)C)C(=O)N[C@@H](CO)C(=O)N[C@@H](CCC(N)=O)C(=O)N[C@@H](CCC(=O)O)C(=O)N[C@@H](CC(C)C)C(=O)N[C@@H](Cc1c[nH]cn1)C(=O)N[C@@H](CCC(=O)O)C(=O)N[C@@H](CC(C)C)C(=O)N[C@@H](CCC(N)=O)C(=O)N[C@H](C(=O)N[C@@H](Cc1ccc(O)cc1)C(=O)N1CCC[C@H]1C(=O)N[C@@H](CCCNC(=N)N)C(=O)N[C@H](C(=O)N[C@@H](CCC(=O)O)C(=O)N[C@H](C(=O)NCC(=O)N[C@@H](CO)C(=O)NCC(=O)N[C@H](C(=O)N[C@@H](Cc1ccc(O)cc1)C(N)=O)[C@@H](C)O)[C@@H](C)O)[C@@H](C)O)[C@@H](C)O)C(C)C)[C@@H](C)O
B3: [N-terminal(C20 diacid-gGlu), des1, 4G, 9V, 15Q, 21Q, 23Y, 25P, 30S, 31Q, 32T, 33Y]mimylin (peptide)
peptide: {C20 diacid-γGlu}-ASGLSTAVLGRLSQELHELQTYPPTETGSQTY-NH2
SMILES: CC(C)C[C@H](NC(=O)CNC(=O)[C@H](CO)NC(=O)[C@H](C)NC(=O)CC[C@H](NC(=O)CCCCCCCCCCCCCCCCCCC(=O)O)C(=O)O)C(=O)N[C@@H](CO)C(=O)N[C@H](C(=O)N[C@@H](C)C(=O)N[C@H](C(=O)N[C@@H](CC(C)C)C(=O)NCC(=O)N[C@@H](CCCNC(=N)N)C(=O)N[C@@H](CC(C)C)C(=O)N[C@@H](CO)C(=O)N[C@@H](CCC(N)=O)C(=O)N[C@@H](CCC(=O)O)C(=O)N[C@@H](CC(C)C)C(=O)N[C@@H](Cc1c[nH]cn1)C(=O)N[C@@H](CCC(=O)O)C(=O)N[C@@H](CC(C)C)C(=O)N[C@@H](CCC(N)=O)C(=O)N[C@H](C(=O)N[C@@H](Cc1ccc(O)cc1)C(=O)N1CCC[C@H]1C(=O)N1CCC[C@H]1C(=O)N[C@H](C(=O)N[C@@H](CCC(=O)O)C(=O)N[C@H](C(=O)NCC(=O)N[C@@H](CO)C(=O)N[C@@H](CCC(N)=O)C(=O)N[C@H](C(=O)N[C@@H](Cc1ccc(O)cc1)C(N)=O)[C@@H](C)O)[C@@H](C)O)[C@@H](C)O)[C@@H](C)O)C(C)C)[C@@H](C)O
B4: [N-terminal(C18 diacid-gGlu-2xOEG), des1, 4G, 9V, 15Q, 21Q, 23Y, 30S, 31G, 32T, 33Y]mimylin (peptide)
peptide: {C18 diacid-γGlu-AEEA-AEEA}-ASGLSTAVLGRLSQELHELQTYPRTETGSGTY-NH2
SMILES: CC(C)C[C@H](NC(=O)CNC(=O)[C@H](CO)NC(=O)[C@H](C)NC(=O)COCCOCCNC(=O)COCCOCCNC(=O)CC[C@H](NC(=O)CCCCCCCCCCCCCCCCC(=O)O)C(=O)O)C(=O)N[C@@H](CO)C(=O)N[C@H](C(=O)N[C@@H](C)C(=O)N[C@H](C(=O)N[C@@H](CC(C)C)C(=O)NCC(=O)N[C@@H](CCCNC(=N)N)C(=O)N[C@@H](CC(C)C)C(=O)N[C@@H](CO)C(=O)N[C@@H](CCC(N)=O)C(=O)N[C@@H](CCC(=O)O)C(=O)N[C@@H](CC(C)C)C(=O)N[C@@H](Cc1c[nH]cn1)C(=O)N[C@@H](CCC(=O)O)C(=O)N[C@@H](CC(C)C)C(=O)N[C@@H](CCC(N)=O)C(=O)N[C@H](C(=O)N[C@@H](Cc1ccc(O)cc1)C(=O)N1CCC[C@H]1C(=O)N[C@@H](CCCNC(=N)N)C(=O)N[C@H](C(=O)N[C@@H](CCC(=O)O)C(=O)N[C@H](C(=O)NCC(=O)N[C@@H](CO)C(=O)NCC(=O)N[C@H](C(=O)N[C@@H](Cc1ccc(O)cc1)C(N)=O)[C@@H](C)O)[C@@H](C)O)[C@@H](C)O)[C@@H](C)O)C(C)C)[C@@H](C)O
B5: [N-terminal(C20 diacid-gGlu), des1, 4G, 9V, 15Q, 21Q, 23Y, 30S, 31A, 32T, 33Y]mimylin (peptide)
peptide: {C20 diacid-γGlu}-ASGLSTAVLGRLSQELHELQTYPRTETGSATY-NH2
SMILES: CC(C)C[C@H](NC(=O)CNC(=O)[C@H](CO)NC(=O)[C@H](C)NC(=O)CC[C@H](NC(=O)CCCCCCCCCCCCCCCCCCC(=O)O)C(=O)O)C(=O)N[C@@H](CO)C(=O)N[C@H](C(=O)N[C@@H](C)C(=O)N[C@H](C(=O)N[C@@H](CC(C)C)C(=O)NCC(=O)N[C@@H](CCCNC(=N)N)C(=O)N[C@@H](CC(C)C)C(=O)N[C@@H](CO)C(=O)N[C@@H](CCC(N)=O)C(=O)N[C@@H](CCC(=O)O)C(=O)N[C@@H](CC(C)C)C(=O)N[C@@H](Cc1c[nH]cn1)C(=O)N[C@@H](CCC(=O)O)C(=O)N[C@@H](CC(C)C)C(=O)N[C@@H](CCC(N)=O)C(=O)N[C@H](C(=O)N[C@@H](Cc1ccc(O)cc1)C(=O)N1CCC[C@H]1C(=O)N[C@@H](CCCNC(=N)N)C(=O)N[C@H](C(=O)N[C@@H](CCC(=O)O)C(=O)N[C@H](C(=O)NCC(=O)N[C@@H](CO)C(=O)N[C@@H](C)C(=O)N[C@H](C(=O)N[C@@H](Cc1ccc(O)cc1)C(N)=O)[C@@H](C)O)[C@@H](C)O)[C@@H](C)O)[C@@H](C)O)C(C)C)[C@@H](C)O
B6: [N-terminal(C20 diacid-gGlu), des1, 2L, 4G, 9V, 21S, 23Y, 30S, 31G, 32T, 33Y]mimylin (peptide)
peptide: {C20 diacid-γGlu}-LSGLSTAVLGRLSAELHELSTYPRTETGSGTY-NH2
SMILES: CC(C)C[C@H](NC(=O)CC[C@H](NC(=O)CCCCCCCCCCCCCCCCCCC(=O)O)C(=O)O)C(=O)N[C@@H](CO)C(=O)NCC(=O)N[C@@H](CC(C)C)C(=O)N[C@@H](CO)C(=O)N[C@H](C(=O)N[C@@H](C)C(=O)N[C@H](C(=O)N[C@@H](CC(C)C)C(=O)NCC(=O)N[C@@H](CCCNC(=N)N)C(=O)N[C@@H](CC(C)C)C(=O)N[C@@H](CO)C(=O)N[C@@H](C)C(=O)N[C@@H](CCC(=O)O)C(=O)N[C@@H](CC(C)C)C(=O)N[C@@H](Cc1c[nH]cn1)C(=O)N[C@@H](CCC(=O)O)C(=O)N[C@@H](CC(C)C)C(=O)N[C@@H](CO)C(=O)N[C@H](C(=O)N[C@@H](Cc1ccc(O)cc1)C(=O)N1CCC[C@H]1C(=O)N[C@@H](CCCNC(=N)N)C(=O)N[C@H](C(=O)N[C@@H](CCC(=O)O)C(=O)N[C@H](C(=O)NCC(=O)N[C@@H](CO)C(=O)NCC(=O)N[C@H](C(=O)N[C@@H](Cc1ccc(O)cc1)C(N)=O)[C@@H](C)O)[C@@H](C)O)[C@@H](C)O)[C@@H](C)O)C(C)C)[C@@H](C)O

What was measured:
[1] = biological target: T1, human amylin 3(a) receptor (human calcitonin receptor co-expressed with RAMP-3) on BHK570/CRE-luc cells (human, UniProt P30988 25-474; O60896 24-148); assay: cell-based or functional assay
T1 sequence (looked up) 1: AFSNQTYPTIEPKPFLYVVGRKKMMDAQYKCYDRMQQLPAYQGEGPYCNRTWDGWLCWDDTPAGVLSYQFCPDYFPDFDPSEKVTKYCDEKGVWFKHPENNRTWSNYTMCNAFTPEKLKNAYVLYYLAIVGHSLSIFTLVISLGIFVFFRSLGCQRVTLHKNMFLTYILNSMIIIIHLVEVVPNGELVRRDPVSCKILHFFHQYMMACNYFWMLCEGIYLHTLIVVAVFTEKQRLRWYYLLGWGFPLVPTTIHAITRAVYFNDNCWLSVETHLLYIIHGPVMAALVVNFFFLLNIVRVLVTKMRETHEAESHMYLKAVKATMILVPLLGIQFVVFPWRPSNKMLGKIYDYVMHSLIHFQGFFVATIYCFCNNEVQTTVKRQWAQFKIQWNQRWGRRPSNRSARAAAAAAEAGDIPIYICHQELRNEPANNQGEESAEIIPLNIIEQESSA
T1 sequence (looked up) 2: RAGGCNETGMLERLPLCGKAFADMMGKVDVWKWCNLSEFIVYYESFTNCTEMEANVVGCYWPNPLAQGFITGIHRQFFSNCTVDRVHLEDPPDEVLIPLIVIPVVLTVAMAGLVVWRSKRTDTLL

[2] = biological target: T2, human calcitonin receptor on BHK570/CRE-luc cells (human, UniProt P30988 25-474); assay: cell-based or functional assay
T2 sequence (looked up): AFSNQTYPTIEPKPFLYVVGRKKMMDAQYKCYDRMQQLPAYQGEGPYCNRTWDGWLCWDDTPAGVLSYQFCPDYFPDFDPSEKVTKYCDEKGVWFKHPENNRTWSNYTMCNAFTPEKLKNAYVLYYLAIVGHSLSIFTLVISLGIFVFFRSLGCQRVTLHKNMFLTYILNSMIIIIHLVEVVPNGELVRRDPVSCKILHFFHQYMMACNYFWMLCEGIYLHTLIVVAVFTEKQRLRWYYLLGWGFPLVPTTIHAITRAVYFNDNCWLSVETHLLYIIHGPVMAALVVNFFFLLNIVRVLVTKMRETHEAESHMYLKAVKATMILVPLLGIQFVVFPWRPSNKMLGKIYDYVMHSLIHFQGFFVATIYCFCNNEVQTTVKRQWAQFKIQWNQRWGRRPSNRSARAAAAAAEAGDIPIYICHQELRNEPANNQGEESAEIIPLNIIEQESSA

| Binder | hAmylin-R funct. EC50 (pM), tested with HSA [1] [pM] | hCTR funct. EC50 (pM), tested with HSA [2] [pM] |
| --- | --- | --- |
| B1 | 122 | 92 |
| B2 | 123 | 68 |
| B3 | 152 | 72 |
| B4 | 80 | 38 |
| B5 | 77 | 37 |
| B6 | 64 | 34 |
